Experimental findings from patent publication US7459156 (University of California, dated 2008) are described below.

For assay [1], the target named is T1, low affinity nerve growth factor receptor (LNGFR) on PC12 cells (rat, UniProt P07174 30-425).
T1 construct: whole, on cells
T1 sequence (looked up): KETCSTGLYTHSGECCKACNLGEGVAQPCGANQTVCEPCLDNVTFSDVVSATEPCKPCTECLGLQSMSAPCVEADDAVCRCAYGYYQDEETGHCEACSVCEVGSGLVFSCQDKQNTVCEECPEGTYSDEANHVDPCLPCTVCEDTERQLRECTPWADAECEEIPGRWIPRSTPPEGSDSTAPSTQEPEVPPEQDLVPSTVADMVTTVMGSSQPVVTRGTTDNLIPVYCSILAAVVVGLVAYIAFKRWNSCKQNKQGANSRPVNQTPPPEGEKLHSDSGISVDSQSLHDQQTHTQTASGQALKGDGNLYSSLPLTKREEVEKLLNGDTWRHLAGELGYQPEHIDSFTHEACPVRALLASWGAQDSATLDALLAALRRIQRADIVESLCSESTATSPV
In words: equilibrium ^125I-NGF binding to PC12 cells, Scatchard/LIGAND; control IgG present; low affinity site. How it is done:
(§1) Binding Assays. […] Nonspecific binding was determined by addition of […] unlabeled NGF, and ranged from 2-25% of specific binding. Determinations were made in triplicate. The equilibrium binding data from two experiments were combined for the Scatchard analysis (Scatchard, G., *Analys of NY Acad. Sciences* 5:660-672 (1949)), which was performed with the program LIGAND (Munson, P. J. and Rodbard, D., *Anal. Biochem.*, 107, 220-239 (1980)). The Scatchard data are plotted as fmoles bound per 10^5 cells (equivalent to a volume of 2×10^-4 liters).
(§2) To analyze the characteristics of the NGF binding sites remaining in the presence of the anti-LNGFR or -trkA antibodies, equilibrium binding assays were performed from 3.5 to 4000 pM NGF. The results are plotted by the Scatchard method in FIG. 2. As is now well known, PC12 cells have NGF binding sites with differing kinetic characteristics, leading to low and high affinity binding sites (Schechter and Bothwell, 1981). This is observed in the biphasic graph of NGF binding determined in the presence of control IgG (FIG. 2, open squares; the binding parameters are presented in Table 1).
(§3) FIG. 2 is an analysis of anti-LNGFR- and RtrkA.EX-resistant NGF binding sites. […] Nonspecific binding was determined as in FIG. 1A; values were determined in triplicate.

The target in assay [2] is T2, rat trkA receptor (full length, 140 kD) (rat, UniProt P35739 33-799).
T2 construct: whole, on cells; also called p140trk; native trkA receptor protein
Briefly: equilibrium ^125I-NGF binding to PC12 cells, Scatchard/LIGAND; control IgG present; high affinity site. How it is done: as §1, §2, §3

The target in assay [3] is T1, low affinity nerve growth factor …. In words: equilibrium ^125I-NGF binding to PC12 cells, Scatchard/LIGAND; 500 ug/ml RtrkA.EX IgG present; remaining low affinity site. How it is done: as §1, §2, §3
Assay [4] concerns the target T2, rat trkA receptor (full length, 140 kD). In words: equilibrium ^125I-NGF binding to PC12 cells, Scatchard/LIGAND; 500 ug/ml anti-LNGFR IgG present; remaining high affinity site. The procedure: as §1, §2, §3

T2 sequence (P35739 33-799): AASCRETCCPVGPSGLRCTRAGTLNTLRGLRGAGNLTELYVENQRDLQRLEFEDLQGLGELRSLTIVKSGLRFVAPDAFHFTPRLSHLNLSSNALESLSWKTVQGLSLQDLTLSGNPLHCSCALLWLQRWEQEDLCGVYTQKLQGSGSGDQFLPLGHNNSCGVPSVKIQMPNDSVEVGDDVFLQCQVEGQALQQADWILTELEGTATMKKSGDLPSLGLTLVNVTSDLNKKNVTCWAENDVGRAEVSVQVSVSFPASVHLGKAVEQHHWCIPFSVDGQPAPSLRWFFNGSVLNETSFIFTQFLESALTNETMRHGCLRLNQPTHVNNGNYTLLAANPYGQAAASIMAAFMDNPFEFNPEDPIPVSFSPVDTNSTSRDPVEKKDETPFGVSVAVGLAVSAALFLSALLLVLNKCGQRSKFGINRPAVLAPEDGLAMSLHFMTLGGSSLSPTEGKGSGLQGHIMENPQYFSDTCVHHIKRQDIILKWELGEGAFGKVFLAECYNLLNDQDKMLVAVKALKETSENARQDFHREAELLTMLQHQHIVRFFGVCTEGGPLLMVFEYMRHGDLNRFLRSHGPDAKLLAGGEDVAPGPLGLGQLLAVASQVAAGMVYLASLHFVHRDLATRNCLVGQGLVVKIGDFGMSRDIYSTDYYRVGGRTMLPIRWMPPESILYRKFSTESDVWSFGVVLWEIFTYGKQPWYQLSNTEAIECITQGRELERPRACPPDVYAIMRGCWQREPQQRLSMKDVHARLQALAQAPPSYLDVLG

B1: nerve growth factor (NGF) (ligand, mouse, UniProt P01139 122-241, looked up)
chain: SSTHPVFHMGEFSVCDSVSVWVGDKTTATDIKGKEVTVLAEVNINNSVFRQYFFETKCRASNPVESGCRGIDSKHWNSYCTTTHTFVKALTTDEKQAAWRFIRIDTACVCVLSRKATRRG
modifications: 125I label on the NGF used in the binding assays
notes: mature; The species is stated only for the unlabelled NGF; the labelled NGF was bought
Broadly, the Kd is a measure of binding affinity in units of concentration. On to B1, for which the Kd in assay [1] is 1.8 nM; in assay [2], 0.038 nM; in assay [3], 1.1 nM; in assay [4], 0.092 nM.
